Measurements: US11965039B2, “Compstatin analogues and their medical uses” (priority 2018, dated 2024)
Positions of bridges follow the written chain, without caps; N, C: chain ends.

Molecular target: Human C3 (Complement tech cat #A113c) (human, UniProt P01024 23-1663)
Assay: cell-based or functional assay

Sequence of Human C3 (Complement tech cat #A113c) (P01024 23-1663 limits assumed): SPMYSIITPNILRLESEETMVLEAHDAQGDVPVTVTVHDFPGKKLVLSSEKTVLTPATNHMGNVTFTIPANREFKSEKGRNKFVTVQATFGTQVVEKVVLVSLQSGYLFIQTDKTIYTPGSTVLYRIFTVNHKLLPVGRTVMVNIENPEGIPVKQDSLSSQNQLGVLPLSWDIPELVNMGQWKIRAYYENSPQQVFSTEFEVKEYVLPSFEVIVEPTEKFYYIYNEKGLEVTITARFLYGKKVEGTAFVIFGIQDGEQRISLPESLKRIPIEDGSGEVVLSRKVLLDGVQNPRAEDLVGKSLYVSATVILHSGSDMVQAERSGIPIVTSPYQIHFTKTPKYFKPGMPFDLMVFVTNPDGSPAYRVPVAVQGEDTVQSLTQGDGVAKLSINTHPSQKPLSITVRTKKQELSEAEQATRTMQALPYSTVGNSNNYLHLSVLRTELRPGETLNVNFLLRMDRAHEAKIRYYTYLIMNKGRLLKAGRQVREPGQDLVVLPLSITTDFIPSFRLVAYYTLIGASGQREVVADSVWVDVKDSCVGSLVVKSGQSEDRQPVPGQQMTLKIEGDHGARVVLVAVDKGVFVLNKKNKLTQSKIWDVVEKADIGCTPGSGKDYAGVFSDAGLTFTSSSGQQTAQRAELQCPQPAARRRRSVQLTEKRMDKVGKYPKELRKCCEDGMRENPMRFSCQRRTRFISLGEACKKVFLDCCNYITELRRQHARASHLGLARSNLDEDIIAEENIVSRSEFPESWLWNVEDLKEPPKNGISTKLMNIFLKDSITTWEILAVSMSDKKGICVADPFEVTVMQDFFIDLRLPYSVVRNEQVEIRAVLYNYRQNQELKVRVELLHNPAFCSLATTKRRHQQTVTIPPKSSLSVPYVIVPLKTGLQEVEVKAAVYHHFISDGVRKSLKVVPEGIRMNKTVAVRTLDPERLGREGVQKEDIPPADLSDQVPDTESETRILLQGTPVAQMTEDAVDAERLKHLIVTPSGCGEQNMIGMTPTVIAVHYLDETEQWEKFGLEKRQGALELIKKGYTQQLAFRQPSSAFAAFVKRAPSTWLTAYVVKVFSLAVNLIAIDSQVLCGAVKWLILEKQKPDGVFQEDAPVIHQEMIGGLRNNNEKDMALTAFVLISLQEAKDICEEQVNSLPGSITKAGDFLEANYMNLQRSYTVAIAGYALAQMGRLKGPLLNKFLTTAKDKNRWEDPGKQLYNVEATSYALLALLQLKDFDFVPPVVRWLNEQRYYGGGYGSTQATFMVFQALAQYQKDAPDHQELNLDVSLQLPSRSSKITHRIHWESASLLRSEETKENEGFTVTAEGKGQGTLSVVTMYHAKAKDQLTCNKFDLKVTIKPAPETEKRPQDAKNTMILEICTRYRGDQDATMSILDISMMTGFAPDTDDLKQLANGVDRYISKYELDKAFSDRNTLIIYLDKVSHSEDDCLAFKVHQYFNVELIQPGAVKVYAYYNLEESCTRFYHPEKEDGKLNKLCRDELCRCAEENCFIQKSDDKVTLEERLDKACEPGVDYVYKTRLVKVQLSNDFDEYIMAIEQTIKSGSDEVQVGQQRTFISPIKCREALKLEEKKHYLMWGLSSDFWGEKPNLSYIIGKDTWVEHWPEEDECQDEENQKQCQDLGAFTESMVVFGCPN

B1: Compound 27 (peptide)
peptide: Ac-ICIWQDWGEHRCEGE-NH2
modifications: disulfide 2-12
SMILES: CC[C@H](C)[C@H](NC(C)=O)C(=O)N[C@H]1CSSC[C@@H](C(=O)N[C@@H](CCC(=O)O)C(=O)NCC(=O)N[C@@H](CCC(=O)O)C(N)=O)NC(=O)[C@H](CCCNC(=N)N)NC(=O)[C@H](Cc2c[nH]cn2)NC(=O)[C@H](CCC(=O)O)NC(=O)CNC(=O)[C@H](Cc2c[nH]c3ccccc23)NC(=O)[C@H](CC(=O)O)NC(=O)[C@H](CCC(N)=O)NC(=O)[C@H](Cc2c[nH]c3ccccc23)NC(=O)[C@H]([C@@H](C)CC)NC1=O
inhibition of hemolysis IC50: < 100 nM

B2: Compound 30 (peptide)
peptide: Ac-EGEICIWQDWGEHRCT-NH2
modifications: disulfide 5-15
SMILES: CC[C@H](C)[C@@H]1NC(=O)[C@@H](NC(=O)[C@@H](NC(=O)[C@H](CCC(=O)O)NC(=O)CNC(=O)[C@H](CCC(=O)O)NC(C)=O)[C@@H](C)CC)CSSC[C@@H](C(=O)N[C@H](C(N)=O)[C@@H](C)O)NC(=O)[C@H](CCCNC(=N)N)NC(=O)[C@H](Cc2c[nH]cn2)NC(=O)[C@H](CCC(=O)O)NC(=O)CNC(=O)[C@H](Cc2c[nH]c3ccccc23)NC(=O)[C@H](CC(=O)O)NC(=O)[C@H](CCC(N)=O)NC(=O)[C@H](Cc2c[nH]c3ccccc23)NC1=O
inhibition of hemolysis IC50: < 100 nM

B3: Compound 26 (peptide)
peptide: Ac-ICIWQDWGEHRCTE-NH2
modifications: disulfide 2-12
SMILES: CC[C@H](C)[C@H](NC(C)=O)C(=O)N[C@H]1CSSC[C@@H](C(=O)N[C@H](C(=O)N[C@@H](CCC(=O)O)C(N)=O)[C@@H](C)O)NC(=O)[C@H](CCCNC(=N)N)NC(=O)[C@H](Cc2c[nH]cn2)NC(=O)[C@H](CCC(=O)O)NC(=O)CNC(=O)[C@H](Cc2c[nH]c3ccccc23)NC(=O)[C@H](CC(=O)O)NC(=O)[C@H](CCC(N)=O)NC(=O)[C@H](Cc2c[nH]c3ccccc23)NC(=O)[C@H]([C@@H](C)CC)NC1=O
inhibition of hemolysis IC50: < 100 nM

B4: Compound 25 (peptide)
peptide: Ac-ICIWQDWGEHRCTEA-NH2
modifications: disulfide 2-12
SMILES: CC[C@H](C)[C@H](NC(C)=O)C(=O)N[C@H]1CSSC[C@@H](C(=O)N[C@H](C(=O)N[C@@H](CCC(=O)O)C(=O)N[C@@H](C)C(N)=O)[C@@H](C)O)NC(=O)[C@H](CCCNC(=N)N)NC(=O)[C@H](Cc2c[nH]cn2)NC(=O)[C@H](CCC(=O)O)NC(=O)CNC(=O)[C@H](Cc2c[nH]c3ccccc23)NC(=O)[C@H](CC(=O)O)NC(=O)[C@H](CCC(N)=O)NC(=O)[C@H](Cc2c[nH]c3ccccc23)NC(=O)[C@H]([C@@H](C)CC)NC1=O
inhibition of hemolysis IC50: < 100 nM

B5: Compound 22 (peptide)
peptide: Ac-ICIWQDWGEHRCE-NH2
modifications: disulfide 2-12
SMILES: CC[C@H](C)[C@H](NC(C)=O)C(=O)N[C@H]1CSSC[C@@H](C(=O)N[C@@H](CCC(=O)O)C(N)=O)NC(=O)[C@H](CCCNC(=N)N)NC(=O)[C@H](Cc2c[nH]cn2)NC(=O)[C@H](CCC(=O)O)NC(=O)CNC(=O)[C@H](Cc2c[nH]c3ccccc23)NC(=O)[C@H](CC(=O)O)NC(=O)[C@H](CCC(N)=O)NC(=O)[C@H](Cc2c[nH]c3ccccc23)NC(=O)[C@H]([C@@H](C)CC)NC1=O
inhibition of hemolysis IC50: < 100 nM

B6: Compound 31 (peptide)
peptide: Ac-ESEICIWQDWGEHRCT-NH2
modifications: disulfide 5-15
SMILES: CC[C@H](C)[C@@H]1NC(=O)[C@@H](NC(=O)[C@@H](NC(=O)[C@H](CCC(=O)O)NC(=O)[C@H](CO)NC(=O)[C@H](CCC(=O)O)NC(C)=O)[C@@H](C)CC)CSSC[C@@H](C(=O)N[C@H](C(N)=O)[C@@H](C)O)NC(=O)[C@H](CCCNC(=N)N)NC(=O)[C@H](Cc2c[nH]cn2)NC(=O)[C@H](CCC(=O)O)NC(=O)CNC(=O)[C@H](Cc2c[nH]c3ccccc23)NC(=O)[C@H](CC(=O)O)NC(=O)[C@H](CCC(N)=O)NC(=O)[C@H](Cc2c[nH]c3ccccc23)NC1=O
inhibition of hemolysis IC50: < 100 nM
